Experimental data taken from US20250263469A1 (HOSPITAL FOR SICK CHILDREN, published 2025).
Read-outs that look alike come from different tables or passages of the source.

What was measured:
Experiment in all cases: cell-based or functional assay
[1] = target: T1, SARS-CoV-2 Spike on pseudotyped virus (PsV) (SARS-CoV-2, UniProt P0DTC2 14-1273)
[2] = target: T1, SARS-CoV-2 Spike on pseudotyped virus …; remark: listed apart in the source
[3] = target: T1, SARS-CoV-2 Spike on pseudotyped virus …; remark: listed apart in the source

| Binder | Median IC50, SARS-CoV-2 PsV neutralization [1] | IC50 SARS-CoV2 PsV, IgG [2] | Median IC50, SARS-CoV-2 PsV neutralization [3] |
| --- | --- | --- | --- |
| mAb 368 (antibody, V domains shown) VH: QVQLVQSGAEVKKPGSSVKVSCKASGYTFTSYDINWVRQAPGQGLEWMGAIMPMFGTANYAQKFQGRVTITADESTSTAYMELSSLRSEDTAVYYCARGSSGYYYGWGQGTLVTVSS VL: not shown | > 50 µg/mL | > 50 µg/mL | – |
| mAb 108 (antibody, V domains shown) VH: QVQLVQSGAEVKKPGASVKVSCKASGYIFSRYAIHWVRQAPGQGLEWMGWMNPISGNTDYAPNFQGRVTMTRDTSTSTVYMELSSLRSEDTAVYYCAKDGSQLAYLVEYFQHWGQGTLVTVSS VL: DIQMTQSPSSLSASVGDRVTITCRASQVITNNLAWYQQKPGKAPKLLIYDASTLETGVPSRFSGSGSGTDFTLTISSLQPEDFATYYCQQSYTFPYTFGQGTKVEIKR | > 50 µg/mL | > 50 µg/mL | – |
| mAb 64 (antibody, V domains shown) VH: EVQLLESGGGLVQPGGSLRLSCAASGFPFSQHGMHWVRQAPGKGLEWVSAIDRSGSYIYYADSVKGRFTISRDNSKNTLYLQMNSLRAEDTAVYYCARDTYGGKVTYFDYWGQGTLVTVSS VL: DIQMTQSPSSLSASVGDRVTITCRASQGISSHLAWYQQKPGKAPKLLIYDASNLETGVPSRFSGSGSGTDFTLTISSLQPEDFATYYCQQTYSTPWTFGQGTKVEIKR | > 50 µg/mL | > 50 µg/mL | – |
| mAb 349 (antibody, V domains shown) VH: EVQLLESGGGLVQPGGSLRLSCAASGFTFSNYGMHWVRQAPGKGLEWVSGISSAGSITNYADSVKGRFTISRDNSKNTLYLQMNSLRAEDTAVYYCAGNHAGTTVTSEYFQHWGQGTLVTVSS VL: DIQMTQSPSSLSASVGDRVTITCRASQSISSWLAWYQQKPGKAPKLLIYDTSNLETGVPSRFSGSGSGTDFTLTISSLQPEDFATYYCQQSYTTPWTFGQGTRLEIKR | > 50 µg/mL | > 50 µg/mL | – |
| mAb 46 (antibody, V domains shown) VH: EVQLLESGGGLVQPGRSLRLSCAASGFTFSSYAMSWVRQAPGKGLEWVSTIYSGGSTYYADSVKGRFTISRDNSKNTLYLQMNSLRAEDTAVYYCARGDSRDAFDIWGQGTMVTVSS VL: DIQMTQSPSSLSASVGDRVTITCRASQSISSWLAWYQQKPGKAPKLLIYDASNLETGVPSRFSGSGSGTDFTLTISSLQPEDFATYYCQQSYSTPFTFGPGTKVDIKR | 2.1 µg/mL | 2.1 µg/mL | – |
| mAb 82 (antibody, V domains shown) VH: QVQLVQSGAEVKKPGASVKVSCKASGGSFSTSAFYWVRQAPGQGLEWMGWINPYTGGTNYAQKFQGRVTMTRDTSTSTVYMELSSLRSEDTAVYYCARSRALYGSGSYFDYWGQGTLVTVSS VL: DIQMTQSPSSLSASVGDRVTITCRASQVISNYLAWYQQKPGKAPKLLIYDASNLETGVPSRFSGSGSGTDFTLTISSLQPEDFATYYCQQSFSPPPTFGQGTRLEIKR | 1.6 µg/mL | 1.6 µg/mL | – |
| mAb 324 (antibody, V domains shown) VH: QVQLVQSGAEVKKPGASVKVSCKASGGTFNNYGISWVRQAPGQGLEWMGWMNPNSGNTGYAQKFQGRVTMTRDTSTSTVYMELSSLRSEDTAVYYCARVGDYGDYIVSPFDLWGRGTLVTVSS VL: DIQMTQSPSSLSASVGDRVTITCRASQSITTYLNWYQQKPGKAPKLLIYDASNLETGVPSRFSGSGSGTDFTLTISSLQPEDFATYYCQQSYSTPPTFGQGTKVEIKR | 0.78 µg/mL | 0.78 µg/mL | – |
| mAb 120 (antibody, V domains shown) VH: QVQLVQSGAEVKKPGASVKVSCKASGYTFTSYDINWVRQAPGQGLEWMGMIDPSGGSTSYAQKFQGRVTMTRDTSTSTVYMELSSLRSEDTAVYYCAKDFGGGTRYDYWYFDLWGRGTLVTVSS VL: EIVMTQSPATLSVSPGERATLSCRASQSVSSRYLAWYQQKPGQAPRLLIYGASTRATGIPARFSGSGSGTEFTLTISSLQSEDFAVYYCQQYYTTPRTFGQGTRLEIKR | > 50 µg/mL | > 50 µg/mL | – |
| mAb 160 (antibody, V domains shown) VH: QVQLVQSGAEVKKPGASVKVSCKASGYTFTGHDMHWVRQAPGQGLEWMGIINPSGGSTSYAQKFQGRVTMTRDTSTSTVYMELSSLRSEDTAVYYCARANSLRYYYGMDVWGQGTMVTVSS VL: DIQMTQSPSSLSASVGDRVTITCRASQSVSSWLAWYQQKPGKAPKLLIYAASSLQSGVPSRFSGSGSGTDFTLTISSLQPEDFATYYCQQGYTTPYTFGQGTKLEIKR | > 50 µg/mL | > 50 µg/mL | – |
| mAb 178 (antibody, V domains shown) VH: QVQLVQSGAEVKKPGASVKVSCKASGYTFTDYHMHWVRQAPGQGLEWMGWINPNSGGTNYAQKFQGRVTMTRDTSTSTVYMELSSLRSEDTAVYYCARDISSWYEITKFDPWGQGTLVTVSS VL: EIVMTQSPATLSVSPGERATLSCKASQSVSGTYLAWYQQKPGQAPRLLIYGASTRATGIPARFSGSGSGTEFTLTISSLQSEDFAVYYCLQTHSYPPTFGQGTKVEIKR | > 50 µg/mL | > 50 µg/mL | – |
| mAb 236 (antibody, V domains shown) VH: QVQLVQSGAEVKKPGASVKVSCKASGGTFTSYGINWVRQAPGQGLEWMGWMNPNSGNTGYAQKFQGRVTMTRDTSTSTVYMELSSLRSEDTAVYYCASRGIQLLPRGMDVWGQGTTVTVSS VL: not shown | 0.057 µg/mL | 0.057 µg/mL | – |
| mAb 128 (antibody, V domains shown) VH: QVQLVQSGAEVKKPGASVKVSCKASGYTFTHYYMHWVRQAPGQGLEWMGIINPSSSSASYSQKFQGRVTMTRDTSTSTVYMELSSLRSEDTAVYYCARDGRYGSGSYPFDYWGQGTLVTVSS VL: DIQMTQSPSSLSASVGDRVTITCRASQNISRYLNWYQQKPGKAPKLLIYDASNLETGVPSRFSGSGSGTDFTLTISSLQPEDFATYYCQQANGFPPTFGQGTKLEIKR | > 50 µg/mL | > 50 µg/mL | – |
| mAb 56 (antibody, V domains shown) VH: QVQLVQSGAEVKKPGASVKVSCKASGYTFTSYGISWVRQAPGQGLEWMGWISAYNGNTNYAQKLQGRVTMTRDTSTSTVYMELSSLRSEDTAVYYCARDIGPIDYWGQGTLVTVSS VL: DIQMTQSPSSLSASVGDRVTITCRASQGISSYLAWYQQKPGKAPKLLIYDASNLQSGVPSRFSGSGSGTDFTLTISSLQPEDFATYYCQQANSFPSTFGQGTKVEIKR | > 50 µg/mL | > 50 µg/mL | – |
| mAb 158 (antibody, V domains shown) VH: QVQLVQSGAEVKKPGASVKVSCKASGYTFTGYYMHWVRQAPGQGLEWMGWINPLNGGTNFAPKFQGRVTMTRDTSTSTVYMELSSLRSEDTAVYYCARDPGGSYSNDAFDIWGQGTLVTVSS VL: DIQMTQSPSSLSASVGDRVTITCRASQSISRYLNWYQQKPGKAPKLLIYDASNLESGVPSRFSGSGSGTDFTLTISSLQPEDFATYYCQQANSFPLTFGGGTKVDIKR | > 50 µg/mL | > 50 µg/mL | – |
| mAb 254 (antibody, V domains shown) VH: EVQLLESGGGLVQPGGSLRLSCAASGFTFSSSAMHWVRQAPGKGLEWVSAIGTGGDTYYADSVKGRFTISRDNSKNTLYLQMNSLRAEDTAVYYCAREGDGYNFYFDYWGQGTLVTVSS VL: DIQMTQSPSSLSASVGDRVTITCRASQGISSYLAWYQQKPGKAPKLLIYDASSLQIGVPSRFSGSGSGTDFTLTISSLQPEDFATYYCLQSYSTPPWTFGQGTKVEIKR | > 50 µg/mL | > 50 µg/mL | – |
| mAb 52 (antibody, V domains shown) VH: QVQLVQSGAEVKKPGSSVKVSCKASGYTFTSYGISWVRQAPGQGLEWMGGIIPMFGTTNYAQKFQGRVTITADKSTSTAYMELSSLRSEDTAVYYCARDRGDTIDYWGQGTLVTVSS VL: DIQMTQSPSSLSASVGDRVTITCRASQGISNNLNWYQQKPGKAPKLLIYAASSLESGVPSRFSGSGSGTDFTLTISSLQPEDFATYYCQQGNGFPLTFGPGTKVDIKR | 0.61 µg/mL | 0.55 µg/mL | – |
| mAb 192 (antibody, V domains shown) VH: QVQLVQSGAEVKKPGSSVKVSCKASGGTFSSYAISWVRQAPGQGLEWMGWINPNSGGANYAQKFQGRVTITADESTSTAYMELSSLRSEDTAVYYCSTYYYDSSGYSTDYWGQGTLVTVSS VL: DIVMTQSPLSLPVTPGEPASISCRSSQSLLHSNGYNYLDWYLQKPGQSPQLLIYAASSLQSGVPDRFSGSGSGTDFTLKISRVEAEDVGVYYCMQALQTPYTFGQGTKLEIKR | > 50 µg/mL | > 50 µg/mL | – |
| mAb 180 (antibody, V domains shown) VH: QVQLVQSGAEVKKPGSSVKVSCKASGYTFTSYAMHWVRQAPGQGLEWMGRISPRSGGTKYAQRFQGRVTITADESTSTAYMELSSLRSEDTAVYYCAREAVAGTHPQAGDFDLWGRGTLVTVSS VL: DIVMTQSPLSLPVTPGEPASISCRSSQSLLHSNGYNYLDWYLQKPGQSPQLLIYAASSLQSGVPDRFSGSGSGTDFTLKISRVEAEDVGVYYCQQYYSSPYTFGQGTKLEIKR | > 50 µg/mL | > 50 µg/mL | – |
| 4A8 IgG (antibody, V domains shown) VH: EVQLVESGAEVKKPGASVKVSCKVSGYTLTELSMHWVRQAPGKGLEWMGGFDPEDGETMYAQKFQGRVTMTEDTSTDTAYMELSSLRSEDTAVYYCATSTAVAGTPDLFDYYYGMDVWGQGTTVTVSS VL: EIVMTQSPLSSPVTLGQPASISCRSSQSLVHSDGNTYLSWLQQRPGQPPRLLIYKISNRFSGVPDRFSGSGAGTDFTLKISRVEAEDVGVYYCTQATQFPYTFGQGTKVDIK | – | – | > 100 g/mL as printed (µg/mL meant) |
